This assay has as its target IL-6. Put plainly: cell-based or functional assay.

Experimental findings from patent publication US20220306715A1 (SHATTUCK LABS, published 2022) are described below.

Chain of IL-6 (P05231 30-212): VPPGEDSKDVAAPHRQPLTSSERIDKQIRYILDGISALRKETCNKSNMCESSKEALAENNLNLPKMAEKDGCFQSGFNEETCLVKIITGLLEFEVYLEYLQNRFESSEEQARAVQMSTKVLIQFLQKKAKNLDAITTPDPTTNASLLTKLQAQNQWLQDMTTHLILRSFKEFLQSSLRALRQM

B1: human IL-6R-Fc-IL-35 chimeric protein (Fc fusion)
chain 1: ELLDPCGYISPESPVVQLHSNFTAVCVLKEKCMDYFHVNANYIVWKTNHFTIPKEQYTIINRTASSVTFTDIASLNIQLTCNILTFGQLEQNVYGITIISGLPPEKPKNLSCIVNEGKKMRCEWDGGRETHLETNFTLKSEWATHKFADCKAKRDTPTSCTVDYSTVYFVNIEVWVEAENALGKVTSDHINFDPVYKVKPNPPHNLSVINSEELSSILKLTWTNPSIKSVIILKYNIQYRTKDASTWSQIPPEDTASTRSSFTVQDLKPFTEYVFRIRCMKEDGKGYWSDWSEEASGITYEDRPSKAPSFWYKIDPSHTQGYRTVQLVWKTLPPFEANGKILDYEVTLTRWKSHLQNYTVNATKLTVNLTNDRYLATLTVRNLVGKSDAAVLTIPACDFQATHPVMDLKAFPKDNMLWVEWTTPRESVKKYILEWCVLSDKAPCITDWQQEDGTVHRTYLRGNLAESKCYLITVTPVYADGPGSPESIKAYLKQAPPSKGPTVRTKKVGKNEAVLEWDQLPVDVQNGFIRNYTIFYRTIIGNETAVNVDSSHTEYTLSSLTSDTLYMVRMAAYTDEGGKDGPEFTFTTPKFAQGEIEGSGSRKGGKRGSKYGPPCPPCPAPEFLGGPSVFLFPPKPKDQLMISRTPEVTCVVVDVSQEDPEVQFNWYVDGVEVHNAKTKPREEQFNSTYRVVSVLTVLHQDWLSGKEYKCKVSSKGLPSSIEKTISNATGQPREPQVYTLPPSQEEMTKNQVSLTCLVKGFYPSDIAVEWESNGQPENNYKTTPPVLDSDGSFFLYSRLTVDKSRWQEGNVFSCSVLHEALHNHYTQKSLSLSLGKDEGGEDGSGSRNLPVATPDPGMFPCLHHSQNLLRAVSNMLQKARQTLEFYPCTSEEIDHEDITKDKTSTVEACLPLELTKNESCLNSRETSFITNGSCLASRKTSFMMALCLSSIYEDLKMYQVEFKTMNAKLLMDPKRQIFLDQNMLAVIDELMQALNFNSETVPQKSSLEEPDFYKTKIKLCILLHAFRIRAVTIDRVMSYLNAS
chain 2: LAPRRCPAQEVARGVLTSLPGDSVTLTCPGVEPEDNATVHWVLRKPAAGSHPSRWAGMGRRLLLRSVQLHDSGNYSCYRAGRPAGTVHLLVDVPPEEPQLSCFRKSPLSNVVCEWGPRSTPSLTTKAVLLVRKFQNSPAEDFQEPCQYSQESQKFSCQLAVPEGDSSFYIVSMCVASSVGSKFSKTQTFQGCGILQPDPPANITVTAVARNPRWLSVTWQDPHSWNSSFYRLRFELRYRAERSKTFTTWMVKDLQHHCVIHDAWSGLRHVVQLRAQEEFGQGEWSEWSPEAMGTPWTESRSPPAENEVSTPMQALTTNKDDDNILFRDSANATSLPVQDSSSVPLPGSGSDEGGEDGSKYGPPCPPCPAPEFLGGPSVFLFPPKPKDQLMISRTPEVTCVVVDVSQEDPEVQFNWYVDGVEVHNAKTKPREEQFNSTYRVVSVLTVLHQDWLSGKEYKCKVSSKGLPSSIEKTISNATGQPREPQVYTLPPSQEEMTKNQVSLTCLVKGFYPSDIAVEWESNGQPENNYKTTPPVLDSDGSFFLYSRLTVDKSRWQEGNVFSCSVLHEALHNHYTQKSLSLSLGKRKGGKRGSGSRKGPPAALTLPRVQCRASRYPIAVDCSWTLPPAPNSTSPVSFIATYRLGMAARGHSWPCLQQTPTSTSCTITDVQLFSMAPYVLNVTAVHPWGSSSSFVPFITEHIIKPDPPEGVRLSPLAERQLQVQWEPPGSWPFPEIFSLKYWIRYKRQGAARFHRVGPIEATSFILRAVRPRARYYVQVAAQDLTDYGELSDWSLPATATMSLGK
Consider B1, for which the “EC50 of induction of apoptosis in IL-6 dependent DS-1 cells cultured 24 hours with IL-6 (caspase 3/7 luciferase assay)” value turned out to be 14.1 nM.
